Test results from US20250000992A1 (Eli Lilly, published 2025).

Experiments:
[1] = target: T1, Sortilin receptor on HEK293 cells (UniProt Q99523 78-831, limits assumed); experiment: told with the HEK293 cathepsin D assay (FIG. 5); no direct binding assay described
T1 construct: whole, on cells

[2] = target: T1, Sortilin receptor on HEK293 cells; experiment: cell-based or functional assay
[3] = target: Human TfR on HEK293 cells (human, UniProt P02786 1-760); experiment: cell-based or functional assay
[4] = target: T2, Cynomolgus TfR1 ECD, His tagged (cynomolgus, UniProt H9EXL1 89-760 (rhesus entry)); experiment: SPR, Biacore T200, 25 C, His-tagged ECD amine coupled to CM3 chip, construct injected, 1:1 fit
T2 construct: extracellular domain; Purchased from SYNGENE; also called cyno TfR1; cyno Tfr1; not shown: His tag
Description: (§1) To determine the binding kinetics and affinity of H09-PGRN and BACDE to human TfR1 (hTfR1), human TfR2 (hTfR2) and cynomolgus TfR1, binding affinities and kinetics for antibody to antigen were determined using a BIACORE® T200 instrument. The binding kinetics and affinity of antibodies H09-PGRN and BACDE to human TfR1 ECD were determined using surface plasmon resonance biosensor such as BIAcore® T200 (GE Healthcare, Piscataway, N.J.). Briefly described, BIAcore® T200 instrument is used to measure the binding kinetics for Sandwich Ex. 1 (H09-PGRN-C90.43) and Sandwich Ex. 2 (H09-PGRNΔpGF-C90.43 to hTfR1, hTfR2 and cyno Tfr1 via surface plasmon resonance (SPR) at 25° C. Samples are dissolved in 1×HBS-EP+running buffer (Teknova cat. #H802) and His tagged ECD of the hTfR1, hTfR2, and cyno TfR was amine coupled to the Cytiva CM3 Series S sensor chip.
(§2) Binding is evaluated using multiple analytical cycles. Each cycle is performed at 25° C. at a flow rate of 50 μl/min for ligand association and dissociation. Each kinetic cycle consists of the following steps: injection of the Sandwich Ex. 1 (H09-PGRN-C90.43) and Sandwich Ex. 2 (H09-PGRNΔpGF-C90.43) over all four flow cells (starting at 125 nM and using two-fold serial dilutions for each cycle) for 240 seconds and followed by 900 seconds for dissociation phase, and regeneration using 3 M MgCl2 […] over a 30 s contact time. Association (i e., kₒₙ) and dissociation rates (i.e., Koff) for each are evaluated using standard double referencing and fit to “1:1 (Langmuir) binding” model in the BiaEvaluation software in batch mode. The affinity (KD) is calculated from the binding kinetics according to the relationship K)=Koff/Kon.

[5] = target: T3, Human TfR1 ECD, hexa-histidine tagged (human, UniProt P02786 89-760); experiment: as above
T3 construct: extracellular domain; Made in 293 cells, purified by IMAC and SEC; amine coupled to a CM3 chip; also called hTfR1; not shown: hexa-histidine tag
Description: as §1, §2

| Binder | binding result [1] | Mature Cathepsin D levels in cell lysate (ELISA), HEK293 cells, 100 ng/mL, 24 hours [2] | Mature Cathepsin D levels in cell lysate (ELISA), HEK293 cells, 100 ng/mL, 24 hours [3] | Kd [4] [nM] | koff [4] [s⁻¹] | kon [4] [M⁻¹ s⁻¹] | Kd [5] [nM] | koff [5] [s⁻¹] | kon [5] [M⁻¹ s⁻¹] |
| --- | --- | --- | --- | --- | --- | --- | --- | --- | --- |
| Sandwich Ex. 3 (8D3-PGRN-C90.43) (Fab, Fab fusion with the 8D3 Fab in place of H09) heavy: EVQLVESGGGLVQPGNSLTLSCVASGFTFSNYGMHWIRQAPKKGLEWIAMIYYDSSKMNYADTVKGRFTISRDNSKNTLYLEMNSLRSEDTAMYYCAVPTSHYVVDVWGQGVSVTVSSASTKGPCVFPLAPSSKSTSGGTAALGCLVKDYFPEPVTVSWNSGALTSGVHTFPAVLQSSGLYSLSSVVTVPSSSLGTQTYICNVNHKPSNTKVDKKVEPKSCDKTHTGGGGQGGGGQGGGGQTRCPDGQFCPVACCLDPGGASYSCCRPLLDKWPTTLSRHLGGPCQVDAHCSAGHSCIFTVSGTSSCCPFPEAVACGDGHHCCPRGFHCSADGRSCFQRSGNNSVGAIQCPDSQFECPDFSTCCVMVDGSWGCCPMPQASCCEDRVHCCPHGAFCDLVHTRCITPTGTHPLAKKLPAQRTNRAVALSSSVMCPDARSRCPDGSTCCELPSGKYGCCPMPNATCCSDHLHCCPQDTVCDLIQSKCLSKENATTDLLTKLPAHTVGDVKCDMEVSCPDGYTCCRLQSGAWGCCPFTQAVCCEDHIHCCPAGFTCDTQKGTCEQGPHQVPWMEKAPAHLSLPDPQALKRDVPCDNVSSCPSSDTCCQLTSGEWGCCPIPEAVCCSDHQHCCPQGYTCVAEGQCQRGSEIVAGLEKMPARRASLSHPRDIGCDQHTSCPVGQTCCPSLGGSWACCQLPHAVCCEDRQHCCPAGYTCNVKARSCEKEVVSAQPATFLARSPHVGVKDVECGEGHFCHDNQTCCRDNRQGWACCPYRQGVCCADRRHCCPAGFRCAARGTKCLRREAPRWDAPLRDPALRQLLGGGGQGGGGQGGGGQEVQLLESGGGLVQPGGSLRLSCAASGRYIDETAVAWFRQAPGKGREFVAGIGGGVDITYYADSVKGRFTISRDNSKNTLYLQMNSLRPEDTAVYYCGARPGRPLITSKVADLYPYWGQGTLVTVSSPP light: DIQMTQSPASLSASLEEIVTITCQASQDIGNWLAWYQQKPGKSPQLLIYGATSLADGVPSRFSGSRSGTQFSLKISRVQVEDIGIYYCLQAYNTPWTFGGGTKLELKRTVAAPSVFIFPPSDEQLKSGTASVVCLLNNFYPREAKVQWKVDNALQSGNSQESVTEQDSKDSTYSLSSTLTLSKADYEKHKVYACEVTHQGLSSPVTKSFNRGEC | no binding | 100 |  |  |  |  |  |  |  |
| Sandwich Ex. 4 (H3.03-PGRN-C90.43) (Fab, Fab fusion with the H3.03 Fab in place of 8D3) heavy: EVQLVESGGGLVKPGGSLRLSCVASGFTFSSYSMNWVRQAPGKGLEWVSSISRSSSYIYYADSVKGRFTISRDNAKNSLYLQMNSLRAEDTAVYYCARIHGYSNSDAFDKWGQGTLVTVSSASTKGPCVFPLAPSSKSTSGGTAALGCLVKDYFPEPVTVSWNSGALTSGVHTFPAVLQSSGLYSLSSVVTVPSSSLGTQTYICNVNHKPSNTKVDKKVEPKSCDKTHTGGGGQGGGGQGGGGQTRCPDGQFCPVACCLDPGGASYSCCRPLLDKWPTTLSRHLGGPCQVDAHCSAGHSCIFTVSGTSSCCPFPEAVACGDGHHCCPRGFHCSADGRSCFQRSGNNSVGAIQCPDSQFECPDFSTCCVMVDGSWGCCPMPQASCCEDRVHCCPHGAFCDLVHTRCITPTGTHPLAKKLPAQRTNRAVALSSSVMCPDARSRCPDGSTCCELPSGKYGCCPMPNATCCSDHLHCCPQDTVCDLIQSKCLSKENATTDLLTKLPAHTVGDVKCDMEVSCPDGYTCCRLQSGAWGCCPFTQAVCCEDHIHCCPAGFTCDTQKGTCEQGPHQVPWMEKAPAHLSLPDPQALKRDVPCDNVSSCPSSDTCCQLTSGEWGCCPIPEAVCCSDHQHCCPQGYTCVAEGQCQRGSEIVAGLEKMPARRASLSHPRDIGCDQHTSCPVGQTCCPSLGGSWACCQLPHAVCCEDRQHCCPAGYTCNVKARSCEKEVVSAQPATFLARSPHVGVKDVECGEGHFCHDNQTCCRDNRQGWACCPYRQGVCCADRRHCCPAGFRCAARGTKCLRREAPRWDAPLRDPALRQLLGGGGQGGGGQGGGGQEVQLLESGGGLVQPGGSLRLSCAASGRYIDETAVAWFRQAPGKGREFVAGIGGGVDITYYADSVKGRFTISRDNSKNTLYLQMNSLRPEDTAVYYCGARPGRPLITSKVADLYPYWGQGTLVTVSSPP light: DIQMTQSPSAMSASVGDRVTITCRASQGISNYLAWFQQKPGKVPKRLIYAASSLQSGVPSRFSGSGSGTEFTLTISSLQPEDFATYYCLQHNSYPRTFGQGTKVEIKRTVAAPSVFIFPPSDEQLKSGTASVVCLLNNFYPREAKVQWKVDNALQSGNSQESVTEQDSKDSTYSLSSTLTLSKADYEKHKVYACEVTHQGLSSPVTKSFNRGEC | no binding |  | 66 |  |  |  |  |  |  |

Now from value to binder:

| binding result [1] | Mature Cathepsin D levels in cell lysate (ELISA), HEK293 cells, 100 ng/mL, 24 hours [2] | Mature Cathepsin D levels in cell lysate (ELISA), HEK293 cells, 100 ng/mL, 24 hours [3] | Kd [4] [nM] | koff [4] [s⁻¹] | kon [4] [M⁻¹ s⁻¹] | Kd [5] [nM] | koff [5] [s⁻¹] | kon [5] [M⁻¹ s⁻¹] | Binder |
| --- | --- | --- | --- | --- | --- | --- | --- | --- | --- |
|  |  |  | 9.7 | 0.0047 | 485000 | 7.29 | 0.00434 | 595000 | Sandwich Ex. 1 (H09-PGRN-C90.43) (Fab, also called H09 Fab-PGRN-C90.43) heavy: EVQLVESGGGLVKPGGSLRLSCVASGFTFSSYSMNWVRQAPGKGLEWVSSISSSSSYIYYADSVKGRFTISRDNAKNSLYLQMNSLRAEDTAVYYCARRHGYSNSDAFDNWGQGTLVTVSSASTKGPSVFPLAPSSKSTSGGTAALGCLVKDYFPEPVTVSWNSGALTSGVHTFPAVLQSSGLYSLSSVVTVPSSSLGTQTYICNVNHKPSNTKVDKKVEPKSCDKTHTGGGGQGGGGQGGGGQTRCPDGQFCPVACCLDPGGASYSCCRPLLDKWPTTLSRHLGGPCQVDAHCSAGHSCIFTVSGTSSCCPFPEAVACGDGHHCCPRGFHCSADGRSCFQRSGNNSVGAIQCPDSQFECPDFSTCCVMVDGSWGCCPMPQASCCEDRVHCCPHGAFCDLVHTRCITPTGTHPLAKKLPAQRTNRAVALSSSVMCPDARSRCPDGSTCCELPSGKYGCCPMPNATCCSDHLHCCPQDTVCDLIQSKCLSKENATTDLLTKLPAHTVGDVKCDMEVSCPDGYTCCRLQSGAWGCCPFTQAVCCEDHIHCCPAGFTCDTQKGTCEQGPHQVPWMEKAPAHLSLPDPQALKRDVPCDNVSSCPSSDTCCQLTSGEWGCCPIPEAVCCSDHQHCCPQGYTCVAEGQCQRGSEIVAGLEKMPARRASLSHPRDIGCDQHTSCPVGQTCCPSLGGSWACCQLPHAVCCEDRQHCCPAGYTCNVKARSCEKEVVSAQPATFLARSPHVGVKDVECGEGHFCHDNQTCCRDNRQGWACCPYRQGVCCADRRHCCPAGFRCAARGTKCLRREAPRWDAPLRDPALRQLLGGGGQGGGGQGGGGQEVQLLESGGGLVQPGGSLRLSCAASGRYIDETAVAWFRQAPGKGREFVAGIGGGVDITYYADSVKGRFTISRDNSKNTLYLQMNSLRPEDTAVYYCGARPGRPLITSKVADLYPYWGQGTLVTVSSPP light: DIQMTQSPSAMSASVGDRVTITCRASQGISHYLVWFQQKPGKVPKRLIYAASSLQSGVPSRFSGSGSGTEFTLTISSLQPEDFATYYCLQHNSYPWTFGQGTKVEIKRTVAAPSVFIFPPSDEQLKSGTASVVCLLNNFYPREAKVQWKVDNALQSGNSQESVTEQDSKDSTYSLSSTLTLSKADYEKHKVYACEVTHQGLSSPVTKSFNRGEC |
|  |  |  | 13 | 0.00318 | 244000 | 7.12 | 0.0052 | 730000 | Sandwich Ex. 2 (H09-PGRNΔpGF-C90.43) (Fab, also called H09 Fab-PGRNΔpGF-C90.43; H09-dPGF-C90.43) heavy: EVQLVESGGGLVKPGGSLRLSCVASGFTFSSYSMNWVRQAPGKGLEWVSSISSSSSYIYYADSVKGRFTISRDNAKNSLYLQMNSLRAEDTAVYYCARRHGYSNSDAFDNWGQGTLVTVSSASTKGPSVFPLAPSSKSTSGGTAALGCLVKDYFPEPVTVSWNSGALTSGVHTFPAVLQSSGLYSLSSVVTVPSSSLGTQTYICNVNHKPSNTKVDKKVEPKSCDKTGGGGQGGGGQGGGGQTPTGTHPLAKKLPAQRTNRAVALSSSVMCPDARSRCPDGSTCCELPSGKYGCCPMPNATCCSDHLHCCPQDTVCDLIQSKCLSKENATTDLLTKLPAHTVGDVKCDMEVSCPDGYTCCRLQSGAWGCCPFTQAVCCEDHIHCCPAGFTCDTQKGTCEQGPHQVPWMEKAPAHLSLPDPQALKRDVPCDNVSSCPSSDTCCQLTSGEWGCCPIPEAVCCSDHQHCCPQGYTCVAEGQCQRGSEIVAGLEKMPARRASLSHPRDIGCDQHTSCPVGQTCCPSLGGSWACCQLPHAVCCEDRQHCCPAGYTCNVKARSCEKEVVSAQPATFLARSPHVGVKDVECGEGHFCHDNQTCCRDNRQGWACCPYRQGVCCADRRHCCPAGFRCAARGTKCLRREAPRWDAPLRDPALRQLLGGGGQGGGGQGGGGQEVQLLESGGGLVQPGGSLRLSCAASGRYIDETAVAWFRQAPGKGREFVAGIGGGVDITYYADSVKGRFTISRDNSKNTLYLQMNSLRPEDTAVYYCGARPGRPLITSKVADLYPYWGQGTLVTVSSPP light: DIQMTQSPSAMSASVGDRVTITCRASQGISHYLVWFQQKPGKVPKRLIYAASSLQSGVPSRFSGSGSGTEFTLTISSLQPEDFATYYCLQHNSYPWTFGQGTKVEIKRTVAAPSVFIFPPSDEQLKSGTASVVCLLNNFYPREAKVQWKVDNALQSGNSQESVTEQDSKDSTYSLSSTLTLSKADYEKHKVYACEVTHQGLSSPVTKSFNRGEC |
